The values below come from patent US20040248240A1.

Like-named read-outs stand apart in the source and are kept apart here.

Common to all, as to test: cell-based or functional assay
Experiment [1] concerns the target rat brain type IIA α sub-unit of the voltage-gated sodium channel (rat) (UniProt P04775).
Experiment [2] shares this target. The source holds these as a separate data set.
For experiment [3] the target is unchanged. This is another data set of the same source.

UniProt P04775, sequence (P04775 whole entry): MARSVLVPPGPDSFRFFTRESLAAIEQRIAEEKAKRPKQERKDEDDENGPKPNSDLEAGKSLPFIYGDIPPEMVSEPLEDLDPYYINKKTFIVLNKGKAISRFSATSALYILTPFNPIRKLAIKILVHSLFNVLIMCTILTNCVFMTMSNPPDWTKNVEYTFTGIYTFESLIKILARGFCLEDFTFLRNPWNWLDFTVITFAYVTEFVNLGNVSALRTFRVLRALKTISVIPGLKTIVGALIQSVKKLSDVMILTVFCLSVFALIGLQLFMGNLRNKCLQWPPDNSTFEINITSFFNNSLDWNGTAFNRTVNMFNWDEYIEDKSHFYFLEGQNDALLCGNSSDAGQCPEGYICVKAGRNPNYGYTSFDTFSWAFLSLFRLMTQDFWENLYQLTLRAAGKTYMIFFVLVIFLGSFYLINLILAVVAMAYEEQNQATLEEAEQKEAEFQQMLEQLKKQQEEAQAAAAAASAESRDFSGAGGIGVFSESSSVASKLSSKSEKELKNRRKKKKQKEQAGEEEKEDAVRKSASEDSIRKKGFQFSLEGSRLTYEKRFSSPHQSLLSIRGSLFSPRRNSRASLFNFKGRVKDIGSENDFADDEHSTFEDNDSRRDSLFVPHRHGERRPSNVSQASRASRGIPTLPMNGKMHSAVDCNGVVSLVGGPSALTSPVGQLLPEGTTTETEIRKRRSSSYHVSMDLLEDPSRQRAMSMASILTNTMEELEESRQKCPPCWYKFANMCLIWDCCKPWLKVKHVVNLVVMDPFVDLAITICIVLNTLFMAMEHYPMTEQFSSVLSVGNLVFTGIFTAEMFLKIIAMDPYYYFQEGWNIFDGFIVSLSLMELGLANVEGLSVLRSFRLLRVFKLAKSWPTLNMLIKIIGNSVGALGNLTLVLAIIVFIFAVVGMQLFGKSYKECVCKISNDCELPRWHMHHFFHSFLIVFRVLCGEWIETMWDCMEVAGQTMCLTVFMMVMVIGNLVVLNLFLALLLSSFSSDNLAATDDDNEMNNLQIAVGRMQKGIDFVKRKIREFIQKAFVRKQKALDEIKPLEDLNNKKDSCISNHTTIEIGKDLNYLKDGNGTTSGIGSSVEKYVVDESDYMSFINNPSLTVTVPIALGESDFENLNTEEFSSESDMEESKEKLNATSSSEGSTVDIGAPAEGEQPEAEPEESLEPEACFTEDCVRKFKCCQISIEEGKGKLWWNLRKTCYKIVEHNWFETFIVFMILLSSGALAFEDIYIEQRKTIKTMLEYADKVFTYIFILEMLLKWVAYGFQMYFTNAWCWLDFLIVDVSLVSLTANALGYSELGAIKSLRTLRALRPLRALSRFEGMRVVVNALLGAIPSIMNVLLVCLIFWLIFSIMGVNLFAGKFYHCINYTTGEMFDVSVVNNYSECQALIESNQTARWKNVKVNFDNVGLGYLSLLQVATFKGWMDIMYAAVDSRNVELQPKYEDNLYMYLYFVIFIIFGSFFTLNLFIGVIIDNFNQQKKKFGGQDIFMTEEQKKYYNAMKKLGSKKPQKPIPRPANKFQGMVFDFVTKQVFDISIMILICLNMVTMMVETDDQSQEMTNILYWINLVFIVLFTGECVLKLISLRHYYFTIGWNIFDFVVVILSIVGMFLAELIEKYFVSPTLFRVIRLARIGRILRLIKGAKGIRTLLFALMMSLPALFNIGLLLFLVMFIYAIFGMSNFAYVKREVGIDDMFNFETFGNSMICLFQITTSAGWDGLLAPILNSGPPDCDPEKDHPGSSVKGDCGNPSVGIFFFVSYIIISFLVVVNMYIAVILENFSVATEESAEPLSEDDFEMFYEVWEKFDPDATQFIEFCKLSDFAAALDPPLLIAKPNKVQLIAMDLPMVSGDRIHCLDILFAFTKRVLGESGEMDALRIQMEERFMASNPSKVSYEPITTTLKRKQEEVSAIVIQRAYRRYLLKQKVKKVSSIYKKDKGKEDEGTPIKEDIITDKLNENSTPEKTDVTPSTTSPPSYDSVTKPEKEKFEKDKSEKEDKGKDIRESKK

As for “rat voltage-gated sodium channel β1 sub-unit (from UniProt Q00954 19-218)”, in experiment [1], the Inactivation timecourse, Percentage in fast mode is 95%; the Inactivation timecourse, time constant 1 worked out at 1.4 ms; the Inactivation timecourse, time constant 2 came to 24.7 ms; the Recovery from inactivation, Percentage in fast mode worked out at 84%. In experiment [1], this molecule had a Recovery from inactivation, time constant 1 of 2 ms; a Recovery from inactivation, time constant 2 of 148 ms; a Voltage-dependence of inactivation, V½ (mV) of -49.1 mV; a Voltage-dependence of inactivation, k (mV) of 5.9 mV. Moreover, in experiment [1], the inactivation time constant 1 at -10 mV (two-electrode voltage clamp, oocytes) worked out at 1.3 ms and the inactivation time constant 2 at -10 mV (two-electrode voltage clamp, oocytes) worked out at 22.7 ms.

B1: rat voltage-gated sodium channel β3 sub-unit (protein)
chain: VCVEVPSETEAVQGNPMKLRCISCMKREEVEATTVVEWFYRPEGGKDFLIYEYRNGHQEVESPFQGRLQWNGSKDLQDVSITVLNVTLNDSGLYTCNVSREFEFEAHRPFVKTTRLIPLRVTEEAGEDFTSVVSEIMMYILLVFLTLWLFIEMIYCYRKVSKAEEAAQENASDYLAIPSENKENSVVPVEE
In experiment [2], B1 showed an Inactivation timecourse, Percentage in fast mode of 85%; an Inactivation timecourse, time constant 1 of 1.5 ms; an Inactivation timecourse, time constant 2 of 24.7 ms; a Recovery from inactivation, Percentage in fast mode of 73%. In experiment [2], this molecule showed a Recovery from inactivation, time constant 1 of 4.1 ms; a Recovery from inactivation, time constant 2 of 170 ms; a Voltage-dependence of inactivation, V½ (mV) of -49.3 mV; a Voltage-dependence of inactivation, k (mV) of 6.1 mV. For the same molecule, in experiment [2], the inactivation time constant 1 at -10 mV (two-electrode voltage clamp, oocytes) worked out at 1 ms; the inactivation time constant 2 at -10 mV (two-electrode voltage clamp, oocytes) worked out at 23.8 ms; the steady-state inactivation, V1/2 (midpoint) was -49.4 mV. In experiment [3], this molecule came in with a Recovery from inactivation, time constant 1 of 1.9 ms and a Recovery from inactivation, time constant 2 of 198 ms.

B2: human voltage-gated sodium channel β3 sub-unit (protein)
chain: FPVCVEVPSETEAVQGNPMKLRCISCMKREEVEATTVVEWFYRPEGGKDFLIYEYRNGHQEVESPFQGRLQWNGSKDLQDVSITVLNVTLNDSGLYTCNVSREFEFEAHRPFVKTTRLIPLRVTEEAGEDFTSVVSEIMMYILLVFLTLWLLIEMIYCYRKVSKAEEAAQENASDYLAIPSENKENSAVPVEE
In experiment [2], B2 showed an inactivation time constant 1 of 1 ms and an inactivation time constant 2 of 9.1 ms.
